# According to patent publication US20080227698A1, “OLIGOPEPTIDES FOR TREATMENT OF OSTEOPOROSIS AND OTHER BONE DISEASES AND METHODS THEREOF” (Washington University, priority 2005, published 2008):
# Key:
# Wnt signaling = assay: Wnt signalling TCF/LEF-Luc assay in HEK293 cells (Wnt3A conditioned medium plus Dkk1); assay type: cell-based; settings: Wnt3A conditioned medium plus Dkk1 protein at 10 nM
# Procedure: HEK293 cells were plated into six-well plates. For each well, […] of the TOP-[…] luciferase construct (Upstate Biotechnology) was cotransfected with 0.8 μg Mesd-expressing vector, 0.8 μg Mesd mutant-expressing vector, or empty vector. A β-galactosidase-expressing vector (Promega, Madison, Wis.) was included as an internal control for transfection efficiency. After 48 hours, cells were lysed and both luciferase and β-galactosidase activities were determined with enzyme assay kits (Promega). The luciferase activity was determined with a luminometer using the Dual Luciferase Assay system (Promega). Luciferase activity was normalized to the activity of the P-galactosidase.
# LRP6 [1] = molecular target: T1, LRP6 (Homo sapiens, UniProt O75581); assay: ^125I-DKK1 binding to LRP6-transduced HT1080 cells; set-up: plasmid pCS-Myc-hLRP6 containing the full-length human LRP6 cDNA; HA; expressed in transfected cells; host or cells: human HT1080 cells, stably transduced (pLNCX2 retroviral vector); settings: ^125I-DKK1 5 nM, 3 hours at 4° C.
# T1 sequence (O75581 20-1613): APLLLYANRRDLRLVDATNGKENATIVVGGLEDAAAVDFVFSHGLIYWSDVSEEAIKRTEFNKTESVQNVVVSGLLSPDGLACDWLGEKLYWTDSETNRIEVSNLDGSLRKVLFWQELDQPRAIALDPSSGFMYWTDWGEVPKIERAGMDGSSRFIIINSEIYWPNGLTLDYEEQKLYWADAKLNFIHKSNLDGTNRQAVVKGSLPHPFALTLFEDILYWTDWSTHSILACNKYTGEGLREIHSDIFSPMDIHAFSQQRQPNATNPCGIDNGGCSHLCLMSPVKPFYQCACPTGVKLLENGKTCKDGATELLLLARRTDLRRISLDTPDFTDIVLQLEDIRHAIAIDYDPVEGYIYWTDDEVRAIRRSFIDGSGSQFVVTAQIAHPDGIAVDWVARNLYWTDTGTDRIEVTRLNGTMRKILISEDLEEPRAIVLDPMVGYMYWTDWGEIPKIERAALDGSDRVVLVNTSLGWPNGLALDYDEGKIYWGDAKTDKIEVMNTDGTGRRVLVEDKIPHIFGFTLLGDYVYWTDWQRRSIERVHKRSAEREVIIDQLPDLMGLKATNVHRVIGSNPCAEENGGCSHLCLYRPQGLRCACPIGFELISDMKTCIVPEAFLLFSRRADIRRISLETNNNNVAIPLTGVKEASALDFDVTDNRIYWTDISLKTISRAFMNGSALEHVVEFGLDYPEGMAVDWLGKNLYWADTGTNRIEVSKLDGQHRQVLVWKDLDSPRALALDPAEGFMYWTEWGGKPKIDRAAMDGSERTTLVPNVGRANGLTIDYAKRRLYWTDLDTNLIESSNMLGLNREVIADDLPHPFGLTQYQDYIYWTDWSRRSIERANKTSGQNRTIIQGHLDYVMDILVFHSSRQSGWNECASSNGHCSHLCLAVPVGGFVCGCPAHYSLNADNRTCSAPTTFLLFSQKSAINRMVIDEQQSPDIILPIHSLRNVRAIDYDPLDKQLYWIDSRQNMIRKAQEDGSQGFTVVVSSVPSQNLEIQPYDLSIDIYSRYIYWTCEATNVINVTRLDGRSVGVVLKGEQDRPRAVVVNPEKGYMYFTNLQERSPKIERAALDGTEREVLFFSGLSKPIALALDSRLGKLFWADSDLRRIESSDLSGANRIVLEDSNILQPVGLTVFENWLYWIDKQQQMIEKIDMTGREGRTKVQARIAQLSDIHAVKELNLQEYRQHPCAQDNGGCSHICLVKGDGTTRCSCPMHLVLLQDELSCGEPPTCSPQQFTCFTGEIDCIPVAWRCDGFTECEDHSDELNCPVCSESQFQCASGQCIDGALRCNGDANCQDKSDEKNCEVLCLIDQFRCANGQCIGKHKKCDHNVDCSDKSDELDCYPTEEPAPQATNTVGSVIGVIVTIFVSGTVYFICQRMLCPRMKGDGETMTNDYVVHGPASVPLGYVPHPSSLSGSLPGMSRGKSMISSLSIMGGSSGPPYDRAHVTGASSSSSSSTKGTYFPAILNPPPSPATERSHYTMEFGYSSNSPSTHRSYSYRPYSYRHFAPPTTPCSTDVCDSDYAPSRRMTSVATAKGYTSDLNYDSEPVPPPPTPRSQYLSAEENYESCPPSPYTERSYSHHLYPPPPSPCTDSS
# Procedure: (§1) Cells (2×10^5) were seeded into 12-well dishes 1 day prior to assay. Ligand-binding buffer (minimal Eagle's medium containing 0.6% BSA with a different concentration of radioligand, 0.6 ml/well) was added to cell monolayers, in the absence or the presence of 500 nM unlabeled RAP or 500 nM unlabeled Mesd, followed with incubation for 0-4 hours at 4° C. Thereafter, overlying buffer containing unbound ligand was removed, and cell monolayers were washed and lysed in low-SDS lysis buffer (62.5 mM Tris-HCl pH 6.8, 0.2% SDS, 10% v/glycerol) and counted.
# RAP is a receptor antagonist for members of the LDLR family, and is able to inhibit the binding of most known ligands of the LDLR family members. […] In these experiments, Serum-free conditioned medium was harvested from HEK293 cells transiently transfected with cDNA for human Myc-DKK1 and allowed to bind to LRP6-transduced HT1080 cells (B,C) and control cells (A) in the absence (A,B) or presence (C) of 1 μM Mesd. Cell-surface-bound Myc-tagged DKK proteins were fixed and detected by immunofluorescence staining with anti-Myc antibody. […] Binding of 125I-DKK1 (5 nM) to LRP6-transduced HT1080 cells or the control cells was carried out for 3 hours at 4° C. in the absence (total) or presence of 500 nM RAP or 500 nM Mesd. […] LRP6-mediated 125I-Mesd (5 nM) degradation was carried out for 4 hours at 37° C. in the absence or presence of 500 nM RAP or 500 nM Mesd. Values are the means of triple determinations with the s.d. indicated by error bars. Bar, 10 μm.
# LRP6 [2] = molecular target: T1, LRP6; assay: LRP6-mediated ^125I-DKK1 degradation in LRP6-transduced HT1080 cells; assay type: cell-based; set-up: plasmid pCS-Myc-hLRP6 containing the full-length human LRP6 cDNA; HA; expressed in transfected cells; host or cells: human HT1080 cells, stably transduced (pLNCX2 retroviral vector); settings: 5 nM, 4 hours at 37° C.
# Procedure: Ligand degradation was performed using the methods as described (Li, Y., J. Biol. Chem. 275: 17187-17194, 2000). Briefly, 2×10^5 cells were seeded into 12-well dishes 1 day prior to assay. Pre-warmed assay buffer (minimal Eagle's medium containing 0.6% BSA with radioligand, 0.6 ml/well) was added to cell monolayers in the absence or the presence of unlabeled 500 nM RAP or 500 nM Mesd, followed by incubation for 4 hours at 37° C. Thereafter, the medium overlying the cell monolayers was removed and proteins were precipitated by addition of BSA to 10 mg/ml and trichloroacetic acid to 20%. […] After each time point, the plates were quickly placed on ice and the assay buffer was replaced with cold stop/strip solution. ^125I-anti-HA IgG that remained on the cell surface was stripped by incubation of cell monolayers with cold stop/strip solution for a total of 20 minutes (0.75 ml for 10 minutes, twice) and counted. Cell monolayers were then solubilized with low-SDS lysis buffer and counted. […] The fraction of internalized ^125I-anti-HA IgG after each time point was calculated and plotted.
# RAP is a receptor antagonist for members of the LDLR family, and is able to inhibit the binding of most known ligands of the LDLR family members. […] Cell-surface-bound Myc-tagged DKK proteins were fixed and detected by immunofluorescence staining with anti-Myc antibody. […]
# LRP6 [3] = molecular target: T1, LRP6; assay: ^125I-Mesd cell surface ligand binding to LRP6-transduced HT1080 cells; set-up: plasmid pCS-Myc-hLRP6 containing the full-length human LRP6 cDNA; HA; expressed in transfected cells; host or cells: human HT1080 cells, stably transduced (pLNCX2 retroviral vector); settings: for Binding of Mesd truncation mutants to cell surface LRP6: LRP6-transduced HT1080 cells, 5 nM ^125I-labelled, 3 hours at 4° C. for Mesd (150-195)
# Procedure: To examine whether Mesd binds with high affinity to […] at the cell surface, cell surface ligand binding experiments were performed with cells stably transduced with LRP6 cDNA. Human HT1080 cells, which express undetectable levels of LRP6, were transduced with a viral vector alone (pLNCX2) or with vector containing LRP6 cDNA (Li, Y., Oncogene 23: 9129-9135, 2004) and used for ^125I-Mesd binding (FIG. 1A). ^125I-Mesd (5 nM) reached maximal binding after 2 hours incubation at 4° C. with LRP6-expressing HT1080 cells (FIG. 1A).
# (A) Time course of ^125I-Mesd (5 nM) binding to LRP6-transduced HT1080 cells and the control cells. Assay was carried out for the indicated periods at 4° C. in the absence (total) or presence of 500 nM Mesd (non-specific). (B) Saturation binding of ^125I-Mesd to LRP6-transduced HT1080 cells and the control cells. Assay was carried out at indicated concentrations for 3 hours at 4° C. in the absence (total) or presence (non-specific) of 500 nM Mesd. (C) Scatchard plots of data in B. All values are the average of triple determinations with the s.d. indicated by error bars.
# as §1
# LRP6 [4] = molecular target: T1, LRP6; assay: LRP6-mediated ^125I-Mesd degradation in LRP6-transduced HT1080 cells; assay type: cell-based; set-up: plasmid pCS-Myc-hLRP6 containing the full-length human LRP6 cDNA; HA; expressed in transfected cells; host or cells: human HT1080 cells, stably transduced (pLNCX2 retroviral vector); settings: 500 nM unlabeled competitor, ^125I-Mesd 5 nM, 4 hours at 37° C.
# Procedure: Ligand degradation was performed using the methods as described (Li, Y., J. Biol. Chem. 275: 17187-17194, 2000). Briefly, 2×10^5 cells were seeded into 12-well dishes 1 day prior to assay. Pre-warmed assay buffer (minimal Eagle's medium containing 0.6% BSA with radioligand, 0.6 ml/well) was added to cell monolayers in the absence or the presence of unlabeled 500 nM RAP or 500 nM Mesd, followed by incubation for 4 hours at 37° C. Thereafter, the medium overlying the cell monolayers was removed and proteins were precipitated by addition of BSA to 10 mg/ml and trichloroacetic acid to 20%. Degradation of radioligand was defined as the appearance of radioactive fragments in the overlying medium that were soluble in 20% trichloroacetic acid. Kinetic analysis of endocytosis LRP6-transduced HT1080 cells were plated in 12-well plates at a density of 2×10^5 cells/well and used after overnight culture. Cells were rinsed twice in ice-cold assay buffer (minimal Eagle's medium containing 0.6% BSA), and ^125I-anti-HA IgG was added at 1 nM final concentration in cold assay buffer (0.5 ml/well). The binding of ^125Ianti- HA IgG was carried out at 4° C. for 90 minutes with gentle rocking. Unbound ^125I-anti-HA IgG was removed by washing cell monolayers three times with cold assay buffer. Ice-cold stop/strip solution (0.2 M acetic acid, pH 2.6, 0.1 M NaCl) was added to one set of plates without warming up and kept on ice. The remaining plates were then placed in a 37° C. water bath and 0.5 ml assay buffer prewarmed to 37° C. was quickly added to cell monolayers to initiate internalization. After each time point, the plates were quickly placed on ice and the assay buffer was replaced with cold stop/strip solution. ^125I-anti-HA IgG that remained on the cell surface was stripped by incubation of cell monolayers with cold stop/strip solution for a total of 20 minutes (0.75 ml for 10 minutes, twice) and counted. Cell monolayers were then solubilized with low-SDS lysis buffer and counted. […] The fraction of internalized ^125I-anti-HA IgG after each time point was calculated and plotted. […]
# LRP6 [5] = molecular target: T1, LRP6; assay: ^125I-RAP binding to LRP6-transduced HT1080 cells and control cells; set-up: plasmid pCS-Myc-hLRP6 containing the full-length human LRP6 cDNA; HA; expressed in transfected cells; host or cells: human HT1080 cells, stably transduced (pLNCX2 retroviral vector)
# Procedure: as §1
# Receptor-associated protein (RAP) binds with high affinity to LRP, megalin, VLDLR and apoER2, and with a lower affinity to the LDLR (Bu, G., Int. Rev. Cytol. 209, 79-116. 2001). To determine whether RAP and Mesd bind to identical, overlapping, or different sites on the receptors, binding and competition analysis of these two chaperones with HT1080 cells stably expressing LRP6 was performed.
# In FIG. 8A, binding of ^125I-RAP (5 nM) to LRP6-transduced HT1080 cells and the control cells was carried out for 4 hours at 4° C. in the absence (total) or presence of 500 nM RAP, or 500 nM Mesd. In FIG. 8B, binding of ^125I-Mesd (5 nM) to LRP6-transduced HT1080 cells was carried out for 2 hours at 4° C. in the absence (total) or presence of various concentrations of RAP or 500 nM Mesd. (C) LRP6-mediated ^125I-Mesd (5 nM) degradation was carried out for 4 hours at 37° C. in the absence or presence of 500 nM Mesd or 500 nM RAP. Values are the means of triple determinations with the s.d. indicated by error bars.
# [6] = molecular target: T2, LRP6 on LRP6-transduced HT1080 cells (HA-tagged) (UniProt O75581 20-1613, limits assumed); assay: competition against 125I-DKK1 for LRP6 (FIG. 10D)
# T2 construct: whole, on cells; also called mature LRP6; cell surface LRP6
# T2 sequence (O75581 20-1613 limits assumed): as the sequence (O75581 20-1613) above
# [7] = molecular target: T3, human Myc-tagged LRP5 on transiently transfected HEK293 cells (human, UniProt O75197 32-1615); assay: competition against 125I-Mesd for LRP5 (FIG. 10A)
# T3 construct: whole, on cells; also called mature LRP5; pcDNA3.1C-Myc-hLRP5
# T3 sequence (O75197 32-1615): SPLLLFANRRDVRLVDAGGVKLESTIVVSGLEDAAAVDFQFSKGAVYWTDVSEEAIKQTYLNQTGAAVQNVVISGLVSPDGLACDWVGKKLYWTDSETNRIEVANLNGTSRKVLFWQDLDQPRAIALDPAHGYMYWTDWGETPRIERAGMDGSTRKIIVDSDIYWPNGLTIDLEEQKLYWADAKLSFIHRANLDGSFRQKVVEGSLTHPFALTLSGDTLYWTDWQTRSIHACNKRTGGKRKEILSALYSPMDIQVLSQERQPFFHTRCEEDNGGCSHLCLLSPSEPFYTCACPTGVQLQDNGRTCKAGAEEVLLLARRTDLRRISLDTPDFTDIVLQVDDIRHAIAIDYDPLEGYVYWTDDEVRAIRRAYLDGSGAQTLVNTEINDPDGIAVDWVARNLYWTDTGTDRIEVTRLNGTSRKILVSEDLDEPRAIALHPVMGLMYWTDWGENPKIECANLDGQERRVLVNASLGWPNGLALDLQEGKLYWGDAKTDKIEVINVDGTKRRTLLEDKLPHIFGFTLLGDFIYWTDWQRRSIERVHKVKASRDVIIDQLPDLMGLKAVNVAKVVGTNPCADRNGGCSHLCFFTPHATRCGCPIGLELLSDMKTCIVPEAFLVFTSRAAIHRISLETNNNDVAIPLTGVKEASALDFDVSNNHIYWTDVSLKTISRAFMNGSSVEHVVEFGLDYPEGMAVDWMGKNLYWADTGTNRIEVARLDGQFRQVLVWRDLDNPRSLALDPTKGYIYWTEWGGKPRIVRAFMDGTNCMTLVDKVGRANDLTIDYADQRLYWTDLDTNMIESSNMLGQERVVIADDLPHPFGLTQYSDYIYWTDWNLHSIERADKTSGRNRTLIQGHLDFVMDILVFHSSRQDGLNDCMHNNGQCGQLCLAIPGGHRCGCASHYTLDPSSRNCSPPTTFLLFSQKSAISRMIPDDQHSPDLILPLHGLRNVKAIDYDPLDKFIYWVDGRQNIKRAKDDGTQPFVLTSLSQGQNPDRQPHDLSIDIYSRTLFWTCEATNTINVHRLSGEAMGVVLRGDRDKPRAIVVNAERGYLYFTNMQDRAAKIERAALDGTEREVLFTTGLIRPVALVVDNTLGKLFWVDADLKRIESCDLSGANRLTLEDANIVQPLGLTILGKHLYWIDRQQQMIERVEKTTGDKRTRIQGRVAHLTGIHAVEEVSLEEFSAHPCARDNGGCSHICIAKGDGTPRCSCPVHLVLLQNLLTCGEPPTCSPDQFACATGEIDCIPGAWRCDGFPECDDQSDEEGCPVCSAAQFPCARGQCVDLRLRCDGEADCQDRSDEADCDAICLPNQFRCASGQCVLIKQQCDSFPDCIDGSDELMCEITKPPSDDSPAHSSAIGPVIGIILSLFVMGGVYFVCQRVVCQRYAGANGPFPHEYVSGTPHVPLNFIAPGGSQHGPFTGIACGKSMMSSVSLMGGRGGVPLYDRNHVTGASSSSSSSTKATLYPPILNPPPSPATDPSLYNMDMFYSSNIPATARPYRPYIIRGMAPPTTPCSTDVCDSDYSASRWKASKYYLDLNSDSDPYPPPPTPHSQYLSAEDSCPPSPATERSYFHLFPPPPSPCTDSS
molecule,measurement,setting,value
"DKK1: human DKK1 protein, LRP6-specific ligand and antagonist; recombinant (R&D Systems) or Myc-tagged in conditioned medium",Effect of Dkk1 on Wnt signaling (luciferase activity),Wnt signaling,inhibits Wnt signaling
same,^125I-DKK1 binding in LRP6-expressing HT1080 cells versus control cells,LRP6 [1],significantly higher levels
same,^125I-DKK1 degradation in LRP6-expressing HT1080 cells versus control cells,LRP6 [2],significantly higher levels
KGGGSKEKNKTKPEKAKKKEGDRKPRASKEDNRAGSR [SEQ ID NO: 21],Restoring of Wnt signaling inhibited by Dkk1 (luciferase activity),Wnt signaling,at least partially restoring Wnt signaling
QMYPGKGGGSKEKNKTKPEKAKKKEGDPKPRASKEDNRAGSRREDL [SEQ ID NO: 22],Restoring of Wnt signaling inhibited by Dkk1 (luciferase activity),Wnt signaling,at least partially restoring Wnt signaling
same,Binding of Mesd truncation mutants to cell surface LRP6,LRP6 [3],necessary and sufficient for LRP6 binding
"RAP: human recombinant 39 kDa receptor-associated protein, expressed in a GST expression vector [reference compound]",Inhibition of ^125I-Mesd binding to cell surface LRP6,"LRP6 [3]; 500 nM unlabeled competitor, ^125I-Mesd 5 nM, 2 hours at 4° C.",~60%
same,Inhibition of ^125I-Mesd degradation,LRP6 [4],only partially
same,Effect of excess unlabeled competitor on ^125I-RAP binding to control cells,"LRP6 [5]; 500 nM competitor, control cells expressing vector alone, 4° C.",completely eliminated this binding
same,Increase of RAP binding in LRP6 expressing HT1080 cells compared to control cells,"LRP6 [5]; ^125I-RAP 5 nM, 4 hours at 4° C.",~20%
same,Effect of excess unlabeled competitor on increased DKK1 binding,LRP6 [1]; 500 nM competitor,not
KGGGSKEKNKTKPEKAKKKEGDPKPRASKEDNRAGSR (also called the oligopeptide) [Mesd oligopeptide KGGGSKEKNKTKPEKAKKKEGDPKPRASKEDNRAGSR (SEQ ID NO: 20)],fold reduction of ^125I-DKK1 binding,[6],> 2 fold
same,fold reduction of ^125I-Mesd binding,[7],~10 fold
"MESD(12-195): truncated Mesd mutant lacking the N-terminal region (N-terminal 11 amino acids of mouse Mesd) (protein, left off: small tags and cut ends) RKKKDIRDYNDADMARLLEQWEKDDDIEEGDLPEHKRPSAPIDFSKLDPGKPESILKMTKKGKTLMMFVTVSGNPTEKETEEITSLWQGSLFNANYDVQRFIVGSDRAIFMLRDGSYAWEIKDFLVSQDRCAEVTLEGQMYPGKGGGSKEKNKTKPEKAKKKEGDRKPRASKEDNRAGSRREDL",Binding of Mesd truncation mutants to cell surface LRP6,LRP6 [3],no effect on LRP6 binding
"Mesd(12-155): truncated Mesd mutant lacking both the N-terminal and C-terminal regions (protein, left off: small tags and cut ends, truncated Mesd mutant lacking both the N-terminal and C-terminal regions) RKKKDIRDYNDADMARLLEQWEKDDDIEEGDLPEHKRPSAPIDFSKLDPGKPESILKMTKKGKTLMMFVTVSGNPTEKETEEITSLWQGSLFNANYDVQRFIVGSDRAIFMLRDGSYAWEIKDFLVSQDRCAEVTLEGQMYPGK",Binding of Mesd truncation mutants to cell surface LRP6,LRP6 [3],completely abolished LRP6 binding
